According to patent publication US20260201064A1 (ISU ABXIS, published 2026):

T1: recombinant human ASM protein (human, UniProt P17405 47-630)
T1 construct: Recombinant human ASM in solution; also called acid sphingomyelinase (ASM) protein
T1 sequence: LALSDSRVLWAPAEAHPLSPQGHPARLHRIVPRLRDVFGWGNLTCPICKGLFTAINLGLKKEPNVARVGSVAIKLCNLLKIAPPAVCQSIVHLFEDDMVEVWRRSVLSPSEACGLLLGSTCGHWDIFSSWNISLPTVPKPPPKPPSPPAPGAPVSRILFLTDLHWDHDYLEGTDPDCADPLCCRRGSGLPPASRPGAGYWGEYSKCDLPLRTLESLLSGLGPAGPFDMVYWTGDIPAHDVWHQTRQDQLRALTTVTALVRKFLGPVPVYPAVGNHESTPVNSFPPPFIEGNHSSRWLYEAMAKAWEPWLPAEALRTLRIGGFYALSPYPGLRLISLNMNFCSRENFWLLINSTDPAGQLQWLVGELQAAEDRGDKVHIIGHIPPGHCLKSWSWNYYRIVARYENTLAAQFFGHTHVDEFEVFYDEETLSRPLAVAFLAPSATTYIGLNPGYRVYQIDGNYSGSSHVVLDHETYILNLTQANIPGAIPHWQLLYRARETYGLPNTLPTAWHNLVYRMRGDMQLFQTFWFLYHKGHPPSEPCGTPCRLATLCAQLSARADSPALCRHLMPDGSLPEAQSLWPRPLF


Molecular target: T1, recombinant human ASM protein
Test: BLI (Octet), antibody on AHC sensor
Method: The binding affinity, to the ASM protein, of the produced antibodies specifically binding to the ASM protein and the interactive dynamics therebetween were measured using an Octet® QK384 system (Pall Life Sciences).
First, an antibody specifically binding to the ASM protein produced in Example 1 was captured using an anti-human IgG Fc capture (AHC) biosensor, and 1.25, 2.5, 5, 10, or 20 nM recombinant human ASM protein solution was added thereto. […] The association constant (Kₐ), dissociation constant (Kd), and equilibrium dissociation constant (KD) for each antibody were determined using Octet® analysis software (Pall Life® Sciences). As a result, the binding affinities, to the human ASM protein, of the antibodies with mutations in the heavy chain CDR regions of the antibody #9104 as depicted in Table 1 are shown in Table 5, and the binding affinities, to the human ASM protein, of the antibodies with mutations of the light chain CDR regions in the antibody #9104 as depicted in Table 2 are shown in Table 6.
After the small-scale expression in the ExpiCHO cell line as described above, the binding affinity to the human ASM protein was investigated as described in Experimental Example 1. Specifically, the antibody produced by a combination of #9104v-H33 heavy chain variable region and #9104v-L23 light chain variable region was not expressed and thus excluded in the analysis of binding affinity to ASM protein.

Kd [nM]	koff [s⁻¹]	kon [M⁻¹ s⁻¹]	Binder
0.0518	1.14e-05	220000	#9104a-A1 (antibody, human IgG4 S228P, lambda, V domains shown, VH of #9104v-H10 with VL of #9104v-L20; full-length IgG, lambda) VH: EVQLLESGGGLVQPGGSLRLSCAASGFTFSNYYMSWVRQAPGKGLEWVSGIYYGNGIPYYADSVKDRFTISRDNSKNTLYLQMNSLRAEDTAVYYCARDTPGFDYWGQGTLVTVSS VL: QSVLTQPPSASGTPGQRVTISCTGSSSNIGNNAVNWYQQLPGTAPKLLIYYDMFRPGGVPDRFSGSKSGTSASLAISGLRSEDEADYYCGAWDYSLSAYVFGGGTKLTVLG
0.137	3.45e-05	253000	#9104a-B1 (antibody, human IgG4 S228P, lambda, V domains shown, VH of #9104v-H10 with VL of #9104v-L21; full-length IgG, lambda) VH: EVQLLESGGGLVQPGGSLRLSCAASGFTFSNYYMSWVRQAPGKGLEWVSGIYYGNGIPYYADSVKDRFTISRDNSKNTLYLQMNSLRAEDTAVYYCARDTPGFDYWGQGTLVTVSS VL: QSVLTQPPSASGTPGQRVTISCTGSSSNIGNNAVNWYQQLPGTAPKLLIYYDMFRPNGVPDRFSGSKSGTSASLAISGLRSEDEADYYCGAWDYSLSAYVFGGGTKLTVLG
0.114	3.03e-05	266000	#9104a-B2 (antibody, human IgG4 S228P, lambda, V domains shown, VH of #9104v-H11 with VL of #9104v-L21; full-length IgG, lambda) VH: EVQLLESGGGLVQPGGSLRLSCAASGFTFSNYYMSWVRQAPGKGLEWVSGIYYGSGIPYYADSVKERFTISRDNSKNTLYLQMNSLRAEDTAVYYCARDTPGFDYWGQGTLVTVSS VL: QSVLTQPPSASGTPGQRVTISCTGSSSNIGNNAVNWYQQLPGTAPKLLIYYDMFRPNGVPDRFSGSKSGTSASLAISGLRSEDEADYYCGAWDYSLSAYVFGGGTKLTVLG
0.237	4.51e-05	191000	#9104a-A8 (antibody, human IgG4 S228P, lambda, V domains shown, VH of #9104v-H33 with VL of #9104v-L20; full-length IgG, lambda) VH: EVQLLESGGGLVQPGGSLRLSCAASGFTFSNYYMSWVRQAPGKGLEWVSGVYYPSGNPYYADSVKGRFTISRDNSKNTLYLQMNSLRAEDTAVYYCARDTPGFDYWGQGTLVTVSS VL: QSVLTQPPSASGTPGQRVTISCTGSSSNIGNNAVNWYQQLPGTAPKLLIYYDMFRPGGVPDRFSGSKSGTSASLAISGLRSEDEADYYCGAWDYSLSAYVFGGGTKLTVLG
0.768	6.96e-05	90600	#9104a-A6 (antibody, human IgG4 S228P, lambda, V domains shown, VH of #9104v-H27 with VL of #9104v-L20; full-length IgG, lambda) VH: EVQLLESGGGLVQPGGSLRLSCAASGFTFSNYYMSWVRQAPGKGLEWVSGTYYDSGYVYYADSVKGRFTISRDNSKNTLYLQMNSLRAEDTAVYYCARDTPGFDYWGQGTLVTVSS VL: QSVLTQPPSASGTPGQRVTISCTGSSSNIGNNAVNWYQQLPGTAPKLLIYYDMFRPGGVPDRFSGSKSGTSASLAISGLRSEDEADYYCGAWDYSLSAYVFGGGTKLTVLG
0.163	4.07e-05	250000	#9104a-B7 (antibody, human IgG4 S228P, lambda, V domains shown, VH of #9104v-H31 with VL of #9104v-L21; full-length IgG, lambda) VH: EVQLLESGGGLVQPGGSLRLSCAASGFTFSNYYMSWVRQAPGKGLEWVSGVYYGSGTPYYADSVKGRFTISRDNSKNTLYLQMNSLRAEDTAVYYCARDTPGFDYWGQGTLVTVSS VL: QSVLTQPPSASGTPGQRVTISCTGSSSNIGNNAVNWYQQLPGTAPKLLIYYDMFRPNGVPDRFSGSKSGTSASLAISGLRSEDEADYYCGAWDYSLSAYVFGGGTKLTVLG
1.14	9.41e-05	82900	#9104a-B6 (antibody, human IgG4 S228P, lambda, V domains shown, VH of #9104v-H27 with VL of #9104v-L21; full-length IgG, lambda) VH: EVQLLESGGGLVQPGGSLRLSCAASGFTFSNYYMSWVRQAPGKGLEWVSGTYYDSGYVYYADSVKGRFTISRDNSKNTLYLQMNSLRAEDTAVYYCARDTPGFDYWGQGTLVTVSS VL: QSVLTQPPSASGTPGQRVTISCTGSSSNIGNNAVNWYQQLPGTAPKLLIYYDMFRPNGVPDRFSGSKSGTSASLAISGLRSEDEADYYCGAWDYSLSAYVFGGGTKLTVLG
0.28	6.44e-05	230000	#9104a-B8 (antibody, human IgG4 S228P, lambda, V domains shown, VH of #9104v-H33 with VL of #9104v-L21; full-length IgG, lambda) VH: EVQLLESGGGLVQPGGSLRLSCAASGFTFSNYYMSWVRQAPGKGLEWVSGVYYPSGNPYYADSVKGRFTISRDNSKNTLYLQMNSLRAEDTAVYYCARDTPGFDYWGQGTLVTVSS VL: QSVLTQPPSASGTPGQRVTISCTGSSSNIGNNAVNWYQQLPGTAPKLLIYYDMFRPNGVPDRFSGSKSGTSASLAISGLRSEDEADYYCGAWDYSLSAYVFGGGTKLTVLG
0.0354	8.13e-06	230000	#9104a-A7 (antibody, human IgG4 S228P, lambda, V domains shown, VH of #9104v-H31 with VL of #9104v-L20; full-length IgG, lambda) VH: EVQLLESGGGLVQPGGSLRLSCAASGFTFSNYYMSWVRQAPGKGLEWVSGVYYGSGTPYYADSVKGRFTISRDNSKNTLYLQMNSLRAEDTAVYYCARDTPGFDYWGQGTLVTVSS VL: QSVLTQPPSASGTPGQRVTISCTGSSSNIGNNAVNWYQQLPGTAPKLLIYYDMFRPGGVPDRFSGSKSGTSASLAISGLRSEDEADYYCGAWDYSLSAYVFGGGTKLTVLG
< 0.001	< 1e-07	243000	#9104a-B5 (antibody, human IgG4 S228P, lambda, V domains shown, VH of #9104v-H19 with VL of #9104v-L21; full-length IgG, lambda) VH: EVQLLESGGGLVQPGGSLRLSCAASGFTFSNYYMSWVRQAPGKGLEWVSGIYYGSGVPYYADSVKGRFTISRDNSKNTLYLQMNSLRAEDTAVYYCARDTPGFDYWGQGTLVTVSS VL: QSVLTQPPSASGTPGQRVTISCTGSSSNIGNNAVNWYQQLPGTAPKLLIYYDMFRPNGVPDRFSGSKSGTSASLAISGLRSEDEADYYCGAWDYSLSAYVFGGGTKLTVLG
0.0277	5.48e-06	198000	#9104a-A3 (antibody, human IgG4 S228P, lambda, V domains shown, VH of #9104v-H13 with VL of #9104v-L20; full-length IgG, lambda) VH: EVQLLESGGGLVQPGGSLRLSCAASGFTFSNYYMSWVRQAPGKGLEWVSGIYYGSGIPYYANSVKGRFTISRDNSKNTLYLQMNSLRAEDTAVYYCARDTPGFDYWGQGTLVTVSS VL: QSVLTQPPSASGTPGQRVTISCTGSSSNIGNNAVNWYQQLPGTAPKLLIYYDMFRPGGVPDRFSGSKSGTSASLAISGLRSEDEADYYCGAWDYSLSAYVFGGGTKLTVLG
0.16	3.93e-05	246000	#9104a-A5 (antibody, human IgG4 S228P, lambda, V domains shown, VH of #9104v-H19 with VL of #9104v-L20; full-length IgG, lambda) VH: EVQLLESGGGLVQPGGSLRLSCAASGFTFSNYYMSWVRQAPGKGLEWVSGIYYGSGVPYYADSVKGRFTISRDNSKNTLYLQMNSLRAEDTAVYYCARDTPGFDYWGQGTLVTVSS VL: QSVLTQPPSASGTPGQRVTISCTGSSSNIGNNAVNWYQQLPGTAPKLLIYYDMFRPGGVPDRFSGSKSGTSASLAISGLRSEDEADYYCGAWDYSLSAYVFGGGTKLTVLG
0.0351	8.23e-06	234000	#9104a-B3 (antibody, human IgG4 S228P, lambda, V domains shown, VH of #9104v-H13 with VL of #9104v-L21; full-length IgG, lambda) VH: EVQLLESGGGLVQPGGSLRLSCAASGFTFSNYYMSWVRQAPGKGLEWVSGIYYGSGIPYYANSVKGRFTISRDNSKNTLYLQMNSLRAEDTAVYYCARDTPGFDYWGQGTLVTVSS VL: QSVLTQPPSASGTPGQRVTISCTGSSSNIGNNAVNWYQQLPGTAPKLLIYYDMFRPNGVPDRFSGSKSGTSASLAISGLRSEDEADYYCGAWDYSLSAYVFGGGTKLTVLG
0.153	3.74e-05	245000	#9104a-B4 (antibody, human IgG4 S228P, lambda, V domains shown, VH of #9104v-H17 with VL of #9104v-L21; full-length IgG, lambda) VH: EVQLLESGGGLVQPGGSLRLSCAASGFTFSNYYMSWVRRAPGKGLEWVSGIYYGSGTPYYAASVKGRFTISRDNSKNTLYLQMNSLRAEDTAVYYCARDTPGFDYWGQGTLVTVSS VL: QSVLTQPPSASGTPGQRVTISCTGSSSNIGNNAVNWYQQLPGTAPKLLIYYDMFRPNGVPDRFSGSKSGTSASLAISGLRSEDEADYYCGAWDYSLSAYVFGGGTKLTVLG
0.162	3.54e-05	219000	#9104a-A4 (antibody, human IgG4 S228P, lambda, V domains shown, VH of #9104v-H17 with VL of #9104v-L20; full-length IgG, lambda) VH: EVQLLESGGGLVQPGGSLRLSCAASGFTFSNYYMSWVRRAPGKGLEWVSGIYYGSGTPYYAASVKGRFTISRDNSKNTLYLQMNSLRAEDTAVYYCARDTPGFDYWGQGTLVTVSS VL: QSVLTQPPSASGTPGQRVTISCTGSSSNIGNNAVNWYQQLPGTAPKLLIYYDMFRPGGVPDRFSGSKSGTSASLAISGLRSEDEADYYCGAWDYSLSAYVFGGGTKLTVLG
0.0961	1.98e-05	206000	#9104a-A2 (antibody, human IgG4 S228P, lambda, V domains shown, VH of #9104v-H11 with VL of #9104v-L20; full-length IgG, lambda) VH: EVQLLESGGGLVQPGGSLRLSCAASGFTFSNYYMSWVRQAPGKGLEWVSGIYYGSGIPYYADSVKERFTISRDNSKNTLYLQMNSLRAEDTAVYYCARDTPGFDYWGQGTLVTVSS VL: QSVLTQPPSASGTPGQRVTISCTGSSSNIGNNAVNWYQQLPGTAPKLLIYYDMFRPGGVPDRFSGSKSGTSASLAISGLRSEDEADYYCGAWDYSLSAYVFGGGTKLTVLG
